Laboratory results published in PMC12598741 (2025).

What was measured:
Experiment in all cases: BLI
h11A4 x L15-1 hIgG4 = target: h11A4 x L15-1 hIgG4
h11A4 x L15-4 hIgG4 = target: h11A4 x L15-4 hIgG4
h11A4 x L15-5 hIgG4 = target: h11A4 x L15-5 hIgG4
h11A4 x L15-3 hIgG4 = target: h11A4 x L15-3 hIgG4
h11A4 x L15-2 hIgG4 = target: h11A4 x L15-2 hIgG4
L15 = target: L15
17C7 x L15 hIgG4 = target: 17C7 x L15 hIgG4

B1: mouse CD16 (mCD16), his-tagged (receptor)
chain: ALPKAVVKLDPPWIQVLKEDMVTLMCEGTHNPGNSSTQWFHNGRSIRSQVQASYTFKATVNDSGEYRCQMEQTRLSDPVDLGVISDWLLLQTPQRVFLEGETITLRCHSWRNKLLNRISFFHNEKSVRYHHYKSNFSIPKANHSHSGDYYCKGSLGSTQHQSKPVTITVQDPATTSSISLVWYHT
- Kd (h11A4 x L15-1 hIgG4): 163 nM
- Kd (h11A4 x L15-4 hIgG4): 211 nM
- Kd (h11A4 x L15-5 hIgG4): 197 nM
- Kd (h11A4 x L15-3 hIgG4): 218 nM
- Kd (h11A4 x L15-2 hIgG4): 119 nM
- Kd (L15): 126 nM
- Kd (17C7 x L15 hIgG4): 16.3 nM
